Laboratory results published in doi:10.1101/2024.10.16.618570 (bioRxiv, 2024).

Target: the molecule itself
Assay: native gel or EMSA

B1: BAK (BCL-2 homologous antagonist/killer), endogenous in mouse liver mitochondria (natural protein, UniProt O08734 1-209, looked up)
chain: MASGQGPGPPKVGCDESPSPSEQQVAQDTEEVFRSYVFYLHQQEQETQGAAAPANPEMDNLPLEPNSILGQVGRQLALIGDDINRRYDTEFQNLLEQLQPTAGNAYELFTKIASSLFKSGISWGRVVALLGFGYRLALYVYQRGLTGFLGQVTCFLADIILHHYIARWIAQRGGWVAALNFRRDPILTVMVIFGVVLLGQFVVHRFFRS
stoichiometry N: 2
